From IntAct's records for PubMed 29039417

B1: BBSome-interacting protein 1 (Homo sapiens), A8MTZ0 (parent)
chain: MLKAAAKRPELSGKNTISNNSDMAEVKSMFREVLPKQGPLFVEDIMTMVLCKPKLLPLKSLTLEKLEKMHQAAQNTIRQQEMAEKDQRQITH
partner: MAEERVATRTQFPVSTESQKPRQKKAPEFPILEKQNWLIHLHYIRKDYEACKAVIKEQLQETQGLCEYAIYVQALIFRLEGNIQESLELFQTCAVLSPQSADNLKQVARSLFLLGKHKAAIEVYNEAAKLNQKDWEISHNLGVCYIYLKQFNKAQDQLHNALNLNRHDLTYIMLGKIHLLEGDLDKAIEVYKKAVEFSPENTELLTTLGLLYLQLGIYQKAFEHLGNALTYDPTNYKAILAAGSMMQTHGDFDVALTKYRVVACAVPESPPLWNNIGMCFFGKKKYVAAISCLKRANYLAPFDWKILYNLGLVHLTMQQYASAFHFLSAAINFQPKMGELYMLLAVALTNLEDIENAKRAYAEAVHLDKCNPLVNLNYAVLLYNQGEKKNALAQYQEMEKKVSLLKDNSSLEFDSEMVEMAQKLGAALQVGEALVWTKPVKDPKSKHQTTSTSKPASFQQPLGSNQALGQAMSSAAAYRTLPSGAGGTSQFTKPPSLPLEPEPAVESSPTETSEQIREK
B2: BBSome complex member BBS1 (Homo sapiens), Q8NFJ9 (parent)
chain: MAAASSSDSDACGAESNEANSKWLDAHYDPMANIHTFSACLALADLHGDGEYKLVVGDLGPGGQQPRLKVLKGPLVMTESPLPALPAAAATFLMEQHEPRTPALALASGPCVYVYKNLRPYFKFSLPQLPPNPLEQDLWNQAKEDRIDPLTLKEMLESIRETAEEPLSIQSLRFLQLELSEMEAFVNQHKSNSIKRQTVITTMTTLKKNLADEDAVSCLVLGTENKELLVLDPEAFTILAKMSLPSVPVFLEVSGQFDVEFRLAAACRNGNIYILRRDSKHPKYCIELSAQPVGLIRVHKVLVVGSTQDSLHGFTHKGKKLWTVQMPAAILTMNLLEQHSRGLQAVMAGLANGEVRIYRDKALLNVIHTPDAVTSLCFGRYGREDNTLIMTTRGGGLIIKILKRTAVFVEGGSEVGPPPAQAMKLNVPRKTRLYVDQTLREREAGTAMHRAFQTDLYLLRLRAARAYLQALESSLSPLSTTAREPLKLHAVVQGLGPTFKLTLHLQNTSTTRPVLGLLVCFLYNEALYSLPRAFFKVPLLVPGLNYPLETFVESLSNKGISDIIKVLVLREGQSAPLLSAHVNMPGSEGLAAA
partner: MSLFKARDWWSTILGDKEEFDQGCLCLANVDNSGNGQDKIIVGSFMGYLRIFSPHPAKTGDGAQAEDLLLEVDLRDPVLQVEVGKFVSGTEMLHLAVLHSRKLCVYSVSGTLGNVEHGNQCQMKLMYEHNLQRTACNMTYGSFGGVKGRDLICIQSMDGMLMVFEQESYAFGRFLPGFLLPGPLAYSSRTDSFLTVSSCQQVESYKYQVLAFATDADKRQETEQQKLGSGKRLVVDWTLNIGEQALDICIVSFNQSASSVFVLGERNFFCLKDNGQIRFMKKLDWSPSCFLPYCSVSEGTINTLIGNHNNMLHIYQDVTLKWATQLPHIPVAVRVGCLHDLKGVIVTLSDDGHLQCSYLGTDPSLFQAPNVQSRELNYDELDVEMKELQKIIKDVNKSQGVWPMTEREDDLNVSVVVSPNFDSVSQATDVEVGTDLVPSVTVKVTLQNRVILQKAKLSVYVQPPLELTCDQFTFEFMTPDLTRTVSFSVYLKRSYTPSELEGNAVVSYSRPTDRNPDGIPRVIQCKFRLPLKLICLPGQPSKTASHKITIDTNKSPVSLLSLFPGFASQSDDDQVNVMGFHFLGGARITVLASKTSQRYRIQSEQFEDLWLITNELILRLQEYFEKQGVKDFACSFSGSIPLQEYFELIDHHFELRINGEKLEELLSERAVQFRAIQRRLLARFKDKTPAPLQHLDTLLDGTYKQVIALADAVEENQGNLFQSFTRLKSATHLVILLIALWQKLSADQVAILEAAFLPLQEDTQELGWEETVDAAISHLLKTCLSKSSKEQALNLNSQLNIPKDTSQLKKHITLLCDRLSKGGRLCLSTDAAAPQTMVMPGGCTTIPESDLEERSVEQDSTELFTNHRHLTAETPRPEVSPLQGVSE

Variants of: B1
Details: with bbs4_human BBS4, Q96RK4

effect of a mutation on the interaction	Variant
with no effect	Q89K
with no effect	Q89E
with no effect	Q89A
with no effect	I77E
with no effect	I77A
with no effect	I77K
with no effect	R88K
with no effect	R88E
with no effect	R88A
with no effect	T76K
with no effect	T76A
with no effect	T76E
with no effect	Q74A
with no effect	Q74E
with no effect	Q74K
with no effect	D86A
with no effect	D86E
with no effect	D86K
with no effect	M82A
with no effect	M82E
with no effect	M82K
with no effect	E84K
with no effect	E84A
with no effect	R78K
with no effect	R78A
with no effect	R78E
with no effect	Q80E

effect of a mutation on the interaction	Variant
with no effect	Q80A
with no effect	Q80K
with no effect	I90K
with no effect	I90E
with no effect	I90A
with no effect	T91K
with no effect	T91E
with no effect	T91A
with no effect	Q87E
with no effect	Q87K
with no effect	Q87A
with no effect	K85E
with no effect	K85A
with no effect	A83E
with no effect	A83K
with no effect	N75A
with no effect	N75K
with no effect	N75E
with no effect	A73K
with no effect	Q79E
with no effect	Q79K
with no effect	Q79A
with no effect	H92A
with no effect	H92E
with no effect	H92K
with no effect	E81A
with no effect	E81K

Variants of: B2
Details: with pthb1_human BBS9, Q3SYG4

Variant	effect of a mutation on the interaction
V415A	with no effect
V415E	with no effect
V415K	with no effect
R432A	with no effect
R432K	with no effect
R432L	disrupting interaction strength
R432E	with no effect
V435A	with no effect
V435E	with no effect
E414A	with no effect
E414K	with no effect
Q421E	with no effect
Q421A	with no effect
Q421K	with no effect
A422E	with no effect
A422K	with no effect
Y434A	with no effect
Y434E	with no effect
Y434K	with no effect
R429K	with no effect
R429A	with no effect
R429E	with no effect

Variant	effect of a mutation on the interaction
P417E	with no effect
P417K	with no effect
P417A	with no effect
K430E	with no effect
K430A	with no effect
K430M	disrupting interaction strength
M423A	with no effect
M423E	with no effect
M423K	with no effect
S413A	with no effect
S413E	with no effect
S413K	with no effect
L433K	with no effect
L433A	with no effect
L433E	with no effect
T431K	with no effect
T431A	with no effect
T431E	with no effect
P418K	with no effect
P418A	with no effect
P418E	with no effect
A420K	with no effect

Variant	effect of a mutation on the interaction
A420E	with no effect
N426A	with no effect
N426E	with no effect
N426K	with no effect
P419E	with no effect
P419A	with no effect
P419K	with no effect
G416A	with no effect
G416E	with no effect
G416K	with no effect
V427E	with no effect
V427K	with no effect
V427A	with no effect
K424E	with no effect
K424A	with no effect
P428E	with no effect
P428K	with no effect
P428A	with no effect
L425A	with no effect
L425E	with no effect
L425K	with no effect

Continued, values first:

effect of a mutation on the interaction	Variant
with no effect	F452A
disrupting interaction strength	F452C
with no effect	F452E
with no effect	F452K
with no effect	L456A
with no effect	L456E
with no effect	L456K
with no effect	A444K
with no effect	A444E
with no effect	V435K
disrupting interaction strength	V435L
with no effect	D436E
disrupting interaction strength	D436A
with no effect	D436K
with no effect	T438E
with no effect	T438K
with no effect	T438A
with no effect	G445K
with no effect	G445A
with no effect	G445E
with no effect	E441A
with no effect	E441K

effect of a mutation on the interaction	Variant
with no effect	D455A
with no effect	D455E
with no effect	D455K
with no effect	L439K
with no effect	L439A
with no effect	L439E
with no effect	A447K
with no effect	A447E
with no effect	Q437A
with no effect	Q437E
with no effect	Q437K
with no effect	H449K
with no effect	H449E
with no effect	H449A
with no effect	L458A
with no effect	L458E
with no effect	Y457K
with no effect	Y457A
with no effect	Y457E
with no effect	M448A
with no effect	M448K
with no effect	M448E

effect of a mutation on the interaction	Variant
with no effect	T454K
with no effect	T454A
with no effect	T454E
with no effect	R450A
with no effect	R450E
with no effect	R450K
with no effect	R442A
with no effect	R442K
with no effect	R442E
with no effect	Q453A
with no effect	Q453E
with no effect	Q453K
with no effect	R440K
with no effect	R440E
with no effect	R440A
with no effect	A451E
with no effect	A451K
with no effect	T446A
with no effect	T446E
with no effect	T446K
with no effect	E443A
with no effect	E443K
